Results: PMC7696055 (Pharmaceutics, 2020)

Tests used:
A431/CCKBR tumors = settings: mouse, in vivo, iv
Text: The image reconstruction and processing was accomplished by using VivoQuant 3.0 Patch1 software.

[1] = cited from earlier work
Text: The radiolabeled PP-F11N is a small molecular weight peptide (2.032 kDa), which can be reabsorbed in the proximal tu ...

With CCCC[C@H](NC(=O)[C@H](Cc1c[nH]c2ccccc12)NC(=O)CNC(=O)[C@H](Cc1ccc(O)cc1)NC(=O)[C@H](C)NC(=O)[C@@H](CCC(=O)O)NC(=O)[C@@H](CCC(=O)O)NC(=O)[C@@H](CCC(=O)O)NC(=O)[C@@H](CCC(=O)O)NC(=O)[C@@H](CCC(=O)O)NC(=O)[C@@H](CCC(=O)O)NC(=O)CN1CCN(CC(=O)O)CCN(CC(=O)O)CCN(CC(=O)O)CC1)C(=O)N[C@@H](CC(=O)O)C(=O)N[C@@H](Cc1ccccc1)C(N)=O [[^111In]In-PP-F11N, metal not drawn] the “location of radioactive signals in SPECT/CT” value (A431/CCKBR tumors) was “only detected in the excretion organs including kidneys and bladder”.

In the case of CCCC[C@H](NC(=O)[C@H](Cc1c[nH]c2ccccc12)NC(=O)CNC(=O)[C@H](Cc1ccc(O)cc1)NC(=O)[C@H](C)NC(=O)[C@@H](CCC(=O)O)NC(=O)[C@@H](CCC(=O)O)NC(=O)[C@@H](CCC(=O)O)NC(=O)[C@@H](CCC(=O)O)NC(=O)[C@@H](CCC(=O)O)NC(=O)[C@@H](CCC(=O)O)NC(=O)CN1CCN(CC(=O)O)CCN(CC(=O)O)CCN(CC(=O)O)CC1)C(=O)N[C@@H](CC(=O)O)C(=O)N[C@@H](Cc1ccccc1)C(N)=O [[^177Lu]Lu-PP-F11N, metal not drawn], the “radiation dose received by stomach (median)” value ([1]; MTC patients, highest organ dose) is given as 0.42 Gy/GBq and the kidney radiation dose ([1]; six MTC patients) is given as “relatively low kidney radiation dose”.
